From the supplement of paper PMC7877785
± gives the uncertainty stated by the source.

Assay: self-splicing fitness, log relative to wild type (ln ratio); higher = more splicing; Tetrahymena group I intron in knt gene, E. coli kanamycin selection, DiMSum; sequences stand for … in CUCUCU…GGAGGGAAAAGUUAUCAGGCAUGCACCUGGUAGCUAGUCUUUAAACCAAUAGAUUGCAUCGGUUUAAAAGGCAAGACCGUCAAAUUGCGGGAAAGGGGUCAACAGCCGUUCAGUACCAAGUCUCAGGGGAAACUUUGAGAUGGCCUUGCAAAGGGUAUGGUAAUAAGCUGACGGACAUGGUCCUAACCACGCAGCCAAGUCCUAAGUCAACAGAUCUUCUGUUGAUAUGGAUGCAGUUCACAGACUAAAUGUCGGUCGGGGAAGAUGUAUUCUUCUCAUAAGAUAUAGUCGGACCUCUCCUUAAUGGGAGCUAGCGGAUGAAGUGAUGCAACACUGGAGCCGCUGGGAACUAAUUUGUAUGCGAAAGUAUAUUGAUUAGUUUUGGAGUACUCGUGGUCG
Procedure, shortened: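 DiMSum derived fitness as the error-weighted combination of fold changes across replicates, kanamycin versus no kanamycin, normalised to wild type. E. coli BL21(DE3) held the library, which randomised all eight P1ex-region intron nucleotides within the knt kanamycin-resistance gene on pET-22b(+). Six replicate transformations grew overnight at 37°C or 30°C on LB agar with or without 25 μg/mL kanamycin, also containing 100 μg/mL carbenicillin, 50 μM IPTG and 0.2% rhamnose, and pooled colonies were amplicon-sequenced on an Illumina HiSeq 2500.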

Row | Sequence | self-splicing fitness (ln) (30 °C) | self-splicing fitness (ln) (37 °C)
1 | GGAUAGCAAUAUUACGUUCU | -1.88 ± 0.15 | -2.27 ± 0.24
2 | GGAUAGCAAUAUUACGUUGG | -2.7 ± 0.16 | -2.17 ± 0.22
3 | GGCAAGCAAUAUUACGAAGG | -3.36 ± 0.17 | -2.05 ± 0.19
4 | GGCAAGCAAUAUUACGACAA | -0.0702 ± 0.12 | -0.492 ± 0.13
5 | GGCAAGCAAUAUUACGACAG | -3.74 ± 0.22 | -2.63 ± 0.24
6 | GGCAAGCAAUAUUACGACCA | -1.23 ± 0.12 | -0.321 ± 0.13
7 | GGCAAGCAAUAUUACGACUA | -0.26 ± 0.13 | 0.336 ± 0.14
8 | GGCAAGCAAUAUUACGCACU | -0.587 ± 0.06 | -0.483 ± 0.075
9 | GGCAAGCAAUAUUACGCAGU | -1.88 ± 0.12 | -1.43 ± 0.13
10 | GGCAAGCAAUAUUACGCCAC | -3.87 ± 0.43 | 
11 | GGCAAGCAAUAUUACGCCUA | -1.04 ± 0.14 | -1.19 ± 0.13
12 | GGCAAGCAAUAUUACGCCUG |  | -0.621 ± 0.47
13 | GGCAAGCAAUAUUACGCGCG | -0.499 ± 0.065 | -0.495 ± 0.081
14 | GGCAAGCAAUAUUACGCUCG | -1.66 ± 0.12 | -1.4 ± 0.19
15 | GGCAAGCAAUAUUACGGACG | -0.442 ± 0.089 | -0.416 ± 0.086
16 | GGCAAGCAAUAUUACGGAUU | -0.462 ± 0.11 | -0.427 ± 0.13
17 | GGCAAGCAAUAUUACGGCAA | 0.2 ± 0.086 | 0.388 ± 0.12
18 | GGCAAGCAAUAUUACGGCGC | -0.3 ± 0.082 | -0.265 ± 0.12
19 | GGCAAGCAAUAUUACGGCUA | -0.251 ± 0.11 | 1.23 ± 0.15
20 | GGCAAGCAAUAUUACGGCUC | -2.55 ± 0.25 | -0.854 ± 0.21
21 | GGCAAGCAAUAUUACGGCUU | -0.985 ± 0.074 | 0.644 ± 0.12

Row | Sequence | self-splicing fitness (ln) (30 °C) | self-splicing fitness (ln) (37 °C)
22 | GGCAAGCAAUAUUACGGGAG | -2.47 ± 0.15 | -1.44 ± 0.18
23 | GGCAAGCAAUAUUACGGUGC | -2.87 ± 0.16 | -1.77 ± 0.17
24 | GGCAAGCAAUAUUACGUAAA | -0.188 ± 0.089 | -0.267 ± 0.1
25 | GGCAAGCAAUAUUACGUACG | -0.191 ± 0.058 | 0.428 ± 0.075
26 | GGCAAGCAAUAUUACGUCGU | -0.68 ± 0.097 | 0.0841 ± 0.11
27 | GGCAAGCAAUAUUACGUCUC | -0.496 ± 0.087 | 0.539 ± 0.12
28 | GGCAAGCAAUAUUACGUGAC | -1.6 ± 0.12 | -0.479 ± 0.14
29 | GGCAAGCAAUAUUACGUGAG | -1.21 ± 0.059 | -0.0615 ± 0.08
30 | GGCAAGCAAUAUUACGUGCG | -1.57 ± 0.1 | -0.197 ± 0.099
31 | GGCAAGCAAUAUUACGUGCU | -3.91 ± 0.16 | -2.99 ± 0.2
32 | GGCAAGCAAUAUUACGUGUA | -0.7 ± 0.049 | -0.0721 ± 0.057
33 | GGCAAGCAAUAUUACGUGUG | -0.694 ± 0.062 | -0.126 ± 0.071
34 | GGCCAGCAAUAUUACGAAAU | -2.92 ± 0.34 | -1.04 ± 0.18
35 | GGCCAGCAAUAUUACGAACC | 0.576 ± 0.31 | -0.0497 ± 0.4
36 | GGCCAGCAAUAUUACGACAC | -0.242 ± 0.1 | 0.0601 ± 0.17
37 | GGCCAGCAAUAUUACGAGCG | -0.269 ± 0.098 | 0.191 ± 0.13
38 | GGCCAGCAAUAUUACGAUCA | -2.93 ± 0.25 | -1.53 ± 0.16
39 | GGCCAGCAAUAUUACGAUGA | -3.07 ± 0.28 | -2.03 ± 0.22
40 | GGCCAGCAAUAUUACGAUGC | -0.639 ± 0.093 | 0.00176 ± 0.11
41 | GGCCAGCAAUAUUACGCCCA | -2.11 ± 0.35 | -0.809 ± 0.25
42 | GGCCAGCAAUAUUACGCCUG | -2.83 ± 0.27 | -1.68 ± 0.23
